Measured values as given in US20260049115A1 (UNIVERSITY OF CHICAGO, published 2026).

Assays:
recombinant mouse IL-2Rα = biological target: T1, recombinant mouse IL-2Rα (mouse, UniProt P01590 22-236, limits assumed); assay: ELISA on plates coated with recombinant mouse IL-2Rα; apparent KD by nonlinear regression, one-site specific binding [panel C]
T1 construct: Bought recombinant protein; also called rm IL-2Rα
T1 sequence (looked up): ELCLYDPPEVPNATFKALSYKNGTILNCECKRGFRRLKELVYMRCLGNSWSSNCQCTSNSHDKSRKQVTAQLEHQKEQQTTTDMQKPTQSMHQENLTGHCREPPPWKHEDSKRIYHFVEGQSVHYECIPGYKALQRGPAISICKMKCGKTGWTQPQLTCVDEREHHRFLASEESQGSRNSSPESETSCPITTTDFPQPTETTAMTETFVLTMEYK
Protocol: (§1) Detection of CBD-IL-2 binding to collagen proteins. The measurement is performed as described previously (Ishihara et al., Sci Transl Med 9:doi:10.1126/scitranslmed.aan0401, 2017). 96-well ELISA plates (Greiner Bio One) were coated with 10 μg/mL collagen I (EMD Millipore), collagen III (EMD Millipore), or 1 μg/mL recombinant mouse IL-2Rα (SinoBiological) in PBS for 1 h at 37° C., followed by blocking with 2% BSA in PBS with 0.05% Tween 20 (PBS-T) for 1 hr at RT. Then, wells were washed with PBS-T and further incubated with 10 μg/mL CBD- or unmodified-IL-2 for 1 hr at RT. After 3 washes with PBS-T, wells were incubated for 1 hr at RT with HRP-conjugated antibody against rat IgG (Jackson ImmunoResearch). After washes, bound CBD-IL2 and IL-2 were detected with tetramethylbenzidine substrate by measurement of the absorbance at 450 nm with subtraction of 570 nm. The apparent dissociation constant (KD) values were obtained by nonlinear regression analysis in Prism software (v7, GraphPad Software) assuming one-site specific binding.

collagen type I [1] = biological target: T2, collagen type I; assay: SPR (Biacore X100), collagen I on CM5 chip, 1:1 Langmuir fit
T2 construct: Bought protein; also called collagen I; type I collagen
Protocol: (§2) FIGS. 6A-6D. CBD-CCL4 fusion protein binds to collagen I and collagen III and maintains its activity. (A) WT CCL4 and CBD-CCL4 were analyzed by SDS-PAGE followed by Coomassie blue staining. (B,C) Affinity of CBD-CCL4 against (B) collagen I and (C) collagen III was measured by SPR. SPR chips were functionalized with collagen I (˜500 RU) and collagen III (˜700 RU), and the CBD-CCL4 was flowed over the chips at indicated concentrations. Curves represent the obtained specific responses (in resonance units (RU)) to CBD-CCL4. Experimental curves were fitted with 1:1 Langmuir fit model. Binding kinetics values [dissociation constants (KD) and rate constants (kₒₙ and koff)] determined from the fitted curves are shown. (D) GPCR activation assay comparing signaling of WT CCL4 and CBD-CCL4 in ThP1 monocytes. EC₅₀ values were calculated using a non-linear dose-response curve fit model. Each point represents mean±SEM, n=3.
(§3) CBD-CCL4 collagen binding measurements using SPR. SPR measurements were made with a Biacore X100 SPR system™ (GE Healthcare). Collagen I or collagen III was immobilized via amine coupling on a CM5 chip (GE Healthcare) for ˜1000 resonance units (RU) according to the manufacturer's instructions. […] Specific binding of CBD-CCL4 to collagen was calculated automatically using the response to a non-functionalized channel as a reference. […]

collagen type III [2] = biological target: T3, collagen type III; assay: SPR, collagen III immobilised on the chip, CBD-CCL4 flowed at 15.6 to 500 nM, 1:1 Langmuir fit [panel C]
T3 construct: Bought protein; also called collagen III; type III collagen
Protocol: as §2, §3

collagen type III [3] = biological target: T3, collagen type III; assay: SPR (Biacore X100), collagen III on CM5 chip, 1:1 Langmuir fit
Protocol: as §2, §3

collagen type I [4] = biological target: T2, collagen type I; assay: SPR, collagen I immobilised on the chip, CBD-CCL4 flowed at 15.6 to 500 nM, 1:1 Langmuir fit [panel B]
Protocol: as §2, §3

[5] = biological target: CCR5 on ThP1 human monocytes (human, UniProt P51681 1-352); assay: cell-based or functional assay
collagen type I [6] = biological target: T2, collagen type I; assay: ELISA on plates coated with collagen I; apparent KD by nonlinear regression, one-site specific binding [panel C]
Protocol: as §1

collagen type III [7] = biological target: T3, collagen type III; assay: ELISA on plates coated with collagen III; apparent KD by nonlinear regression, one-site specific binding [panel C]
Protocol: as §1

T3 sequence (P02461 154-1221): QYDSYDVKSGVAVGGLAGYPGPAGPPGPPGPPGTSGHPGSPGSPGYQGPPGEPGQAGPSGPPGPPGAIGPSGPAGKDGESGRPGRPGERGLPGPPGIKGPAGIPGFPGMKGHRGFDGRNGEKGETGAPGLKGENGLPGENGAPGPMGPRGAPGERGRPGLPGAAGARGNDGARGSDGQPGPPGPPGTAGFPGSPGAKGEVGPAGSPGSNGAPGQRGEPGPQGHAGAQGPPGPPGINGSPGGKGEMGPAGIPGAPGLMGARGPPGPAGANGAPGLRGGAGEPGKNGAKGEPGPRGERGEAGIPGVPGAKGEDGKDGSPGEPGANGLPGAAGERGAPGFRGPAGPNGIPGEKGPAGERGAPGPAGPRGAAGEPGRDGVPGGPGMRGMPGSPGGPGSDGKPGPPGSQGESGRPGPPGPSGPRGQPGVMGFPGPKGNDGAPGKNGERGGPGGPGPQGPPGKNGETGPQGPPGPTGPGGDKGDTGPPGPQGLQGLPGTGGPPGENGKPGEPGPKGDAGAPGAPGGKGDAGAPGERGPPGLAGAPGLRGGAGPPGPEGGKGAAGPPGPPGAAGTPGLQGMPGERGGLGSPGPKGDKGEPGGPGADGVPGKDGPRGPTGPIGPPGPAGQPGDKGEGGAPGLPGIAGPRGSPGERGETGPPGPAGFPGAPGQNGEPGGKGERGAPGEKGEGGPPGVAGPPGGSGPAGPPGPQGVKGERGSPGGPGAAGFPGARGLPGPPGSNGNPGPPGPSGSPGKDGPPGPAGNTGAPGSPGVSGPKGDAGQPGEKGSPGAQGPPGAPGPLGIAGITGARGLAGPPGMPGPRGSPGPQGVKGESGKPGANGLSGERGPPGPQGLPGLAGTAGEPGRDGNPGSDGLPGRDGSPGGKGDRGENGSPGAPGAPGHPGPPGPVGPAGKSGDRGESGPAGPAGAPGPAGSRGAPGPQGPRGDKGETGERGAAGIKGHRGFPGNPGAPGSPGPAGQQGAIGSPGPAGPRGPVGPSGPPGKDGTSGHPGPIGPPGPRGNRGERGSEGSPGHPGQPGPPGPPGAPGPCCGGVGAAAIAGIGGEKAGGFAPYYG
Chain of CCR5 on ThP1 human monocytes (P51681 whole entry): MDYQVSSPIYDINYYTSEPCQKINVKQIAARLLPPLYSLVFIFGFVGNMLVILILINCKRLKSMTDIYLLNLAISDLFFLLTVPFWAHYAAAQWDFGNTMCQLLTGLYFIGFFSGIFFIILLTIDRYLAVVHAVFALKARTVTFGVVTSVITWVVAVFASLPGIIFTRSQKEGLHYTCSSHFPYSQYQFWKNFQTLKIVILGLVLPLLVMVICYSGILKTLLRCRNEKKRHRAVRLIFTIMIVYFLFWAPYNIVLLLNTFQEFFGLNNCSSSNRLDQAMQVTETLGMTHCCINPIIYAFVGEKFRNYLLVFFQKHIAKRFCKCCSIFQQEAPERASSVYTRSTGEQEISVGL

B1: wild-type mouse IL-2 (His-tagged) (ligand)
chain: PTSSSTSSSTAEAQQQQQQQQQQQQHLEQLLMDLQELLSRMENYRNLKLPRMLTFKFYLPKQATELKDLQCLEDELGPLRHVLDLTQSKSFQLEDAENFISNIRVTVVKLKGSDNTFECQFDDESATVVDFLRRWIAFCQSIISTSPQ
notes: The entry includes the C-terminal 6xHis tag as printed; also called wild-type IL-2; unmodified-IL-2
For B1, the Kd (recombinant mouse IL-2Rα) was 60 nM.

B2: CBD-CCL4 (human vWF A3 domain and murine CCL4 fusion protein) (other)
chain: CSQPLDVILLLDGSSSFPASYFDEMKSFAKAFISKANIGPRLTQVSVLQYGSITTIDVPWNVVPEKAHLLSLVDVMQREGGPSQIGDALGFAVRYLTSEMHGARPGASKAVVILVTDVSVDSVDAAADAARSNRVTVFPIGIGDRYDAAQLRILAGPAGDSNVVKLQRIEDLPTMVTLGNSFLHKLCSGFVRIGGGGSGGGGSAPMGSDPPTSCCFSYTSRQLHRSFVMDYYETSSLCSKPAVVFLTKRGRQICANPSEPWVTEYMSDLELNHHHHHH
notes: also called CBD-CCL4 fusion protein; vWF A3 domain-CCL4 fusion protein
For B2, the Kd (collagen type I [1]) was 33.4 nM, the koff (collagen type III [2]) was 0.0078 s⁻¹ and the kon (collagen type III [2]) was 540000 M⁻¹ s⁻¹. For the same binder, the Kd (collagen type III [3]) was 14.5 nM, the koff (collagen type I [4]) was 0.0031 s⁻¹ and the kon (collagen type I [4]) was 95000 M⁻¹ s⁻¹. The “EC50, calcium flux (RFU) in ThP1 monocytes [panel D]” value [5] was 7 nM.

B3: CBD-fused IL-2 recombinant protein (the vWF A3 domain and mouse IL-2 fusion protein) (other)
chain: CSQPLDVILLLDGSSSFPASYFDEMKSFAKAFISKANIGPRLTQVSVLQYGSITTIDVPWNVVPEKAHLLSLVDVMQREGGPSQIGDALGFAVRYLTSEMHGARPGASKAVVILVTDVSVDSVDAAADAARSNRVTVFPIGIGDRYDAAQLRILAGPAGDSNVVKLQRIEDLPTMVTLGNSFLHKLCSGFVRIGGGSGGGSPTSSSTSSSTAEAQQQQQQQQQQQQHLEQLLMDLQELLSRMENYRNLKLPRMLTFKFYLPKQATELKDLQCLEDELGPLRHVLDLTQSKSFQLEDAENFISNIRVTVVKLKGSDNTFECQFDDESATVVDFLRRWIAFCQSIISTSPQ
notes: also called CBD-IL-2
For B3, the Kd (collagen type I [6]) was 268 nM, the Kd (recombinant mouse IL-2Rα) was 54.7 nM and the Kd (collagen type III [7]) was 181 nM.
